Ends that are not written are not given here. * marks the point of attachment. Biotin = O=C1N[C@H]2[C@H](CS[C@H]2CCCCC(=O)*)N1
Target: T1, GST-TAX2 PDZ domain fusion protein (human tax interaction protein 2 AA54-140; PDZ domain 1 of 1) (human, UniProt P08515 1-218 = GST)
T1 construct: also called TX 2
Assay: A/G assays

T1 sequence (P08515 1-218, tags or fused parts left off): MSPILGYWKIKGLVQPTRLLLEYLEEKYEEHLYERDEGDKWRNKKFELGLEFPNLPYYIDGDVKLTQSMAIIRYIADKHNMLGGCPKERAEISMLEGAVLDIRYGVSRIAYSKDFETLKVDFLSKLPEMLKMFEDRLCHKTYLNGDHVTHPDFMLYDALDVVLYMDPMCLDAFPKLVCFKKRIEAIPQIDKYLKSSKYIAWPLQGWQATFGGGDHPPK

| Binder | binding result |
| --- | --- |
| Biotin-PYGTAMEKAQLKPPATSDA [CD49E (alpha-4) C-terminal PL peptide AA11L, biotinylated] | no binding |

Target: T2, GST-KIAA0316 PDZ domain fusion protein (KIAA0316 AA197-284; PDZ domain 1 of 1) (UniProt P08515 1-218 = GST)
T2 construct: also called K316
Assay: A/G assays

T2 sequence (P08515 1-218, tags or fused parts left off): as above

| Binder | binding result |
| --- | --- |
| Biotin-PYGTAMEKAQLKPPATSDA [CD49E (alpha-4) C-terminal PL peptide AA11L, biotinylated] | no binding |

Target: T3, GST-MPP2 PDZ domain fusion protein (maguk p55 subfamily member 2 (DLG2) AA185-273; PDZ domain 1 of 1) (UniProt P08515 1-218 = GST)
T3 construct: also called MMP2
Assay: A/G assays

T3 sequence (P08515 1-218, tags or fused parts left off): as above

| Binder | binding result |
| --- | --- |
| Biotin-PYGTAMEKAQLKPPATSDA [CD49E (alpha-4) C-terminal PL peptide AA11L, biotinylated] | no binding |

Target: T4, GST-TAX33 PDZ domain fusion protein (tax interaction protein 33 AA73-162; PDZ domain 1 of 1) (UniProt P08515 1-218 = GST)
T4 construct: also called TX33
Assay: A/G assays

T4 sequence (P08515 1-218, tags or fused parts left off): as above

| Binder | binding result |
| --- | --- |
| Biotin-PYGTAMEKAQLKPPATSDA [CD49E (alpha-4) C-terminal PL peptide AA11L, biotinylated] | no binding |

Target: T5, GST-KIAA0559 PDZ domain fusion protein (KIAA0559 AA766-870; PDZ1 of 1) (UniProt P08515 1-218 = GST)
T5 construct: also called K559
Assay: A/G assays

T5 sequence (P08515 1-218, tags or fused parts left off): as above

| Binder | binding result |
| --- | --- |
| Biotin-PYGTAMEKAQLKPPATSDA [CD49E (alpha-4) C-terminal PL peptide AA11L, biotinylated] | no binding |

Target: GST-LIMK2 PDZ domain fusion protein (human LIM domain kinase 2 AA185-275; PDZ domain 1 of 1) (human, UniProt P08515 1-218 = GST)
Assay: A/G assays

Chain of GST-LIMK2 PDZ domain fusion protein (human LIM domain kinase 2 AA185-275; PDZ domain 1 of 1) (P08515 1-218, tags or fused parts left off): as above

| Binder | binding result |
| --- | --- |
| Biotin-PYGTAMEKAQLKPPATSDA [CD49E (alpha-4) C-terminal PL peptide AA11L, biotinylated] | no binding |

Target: T6, GST-SYN1a PDZ domain fusion protein (alpha1-syntrophin AA96-189; PDZ domain 1 of 1) (UniProt P08515 1-218 = GST)
T6 construct: also called SYN 1 alpha; SYNTR 1 alpha
Assay: A/G assays

T6 sequence (P08515 1-218, tags or fused parts left off): as above

| Binder | binding result |
| --- | --- |
| Biotin-PYGTAMEKAQLKPPATSDA [CD49E (alpha-4) C-terminal PL peptide AA11L, biotinylated] | no binding |

Target: T7, GST-TAX40 PDZ domain fusion protein (human tax interaction protein 40 AA35-137; PDZ domain 1 of 1) (human, UniProt P08515 1-218 = GST)
T7 construct: also called TX 40
Assay: A/G assays

| Binder | binding result |
| --- | --- |
| Biotin-PYGTAMEKAQLKPPATSDA [CD49E (alpha-4) C-terminal PL peptide AA11L, biotinylated] | no binding |

Target: GST-LIM PDZ domain fusion protein (Human LIM protein AA29-112; PDZ domain 1 of 1) (human, UniProt P08515 1-218 = GST)
Assay: A/G assays

Chain of GST-LIM PDZ domain fusion protein (Human LIM protein AA29-112; PDZ domain 1 of 1) (P08515 1-218, tags or fused parts left off): as above

| Binder | binding result |
| --- | --- |
| Biotin-PYGTAMEKAQLKPPATSDA [CD49E (alpha-4) C-terminal PL peptide AA11L, biotinylated] | no binding |

Target: T8, GST-TAX43 PDZ domain fusion protein (human tax interaction protein 43 AA15-85; PDZ domain 1 of 1) (human, UniProt P08515 1-218 = GST)
T8 construct: also called TX 43
Assay: A/G assays

T8 sequence (P08515 1-218, tags or fused parts left off): as above

| Binder | binding result |
| --- | --- |
| Biotin-PYGTAMEKAQLKPPATSDA [CD49E (alpha-4) C-terminal PL peptide AA11L, biotinylated] | no binding |

Target: GST-MINT3 PDZ domain fusion protein (human MINT3 AA11-52; PDZ domain 1 of 1) (human, UniProt P08515 1-218 = GST)
Assay: A/G assays

Chain of GST-MINT3 PDZ domain fusion protein (human MINT3 AA11-52; PDZ domain 1 of 1) (P08515 1-218, tags or fused parts left off): as above

| Binder | binding result |
| --- | --- |
| Biotin-PYGTAMEKAQLKPPATSDA [CD49E (alpha-4) C-terminal PL peptide AA11L, biotinylated] | no binding |

Target: GST-PTN-4 PDZ domain fusion protein (protein-tyrosine phosphatase meg1 AA774-862; PDZ domain 1 of 1) (UniProt P08515 1-218 = GST)
Assay: A/G assays

Chain of GST-PTN-4 PDZ domain fusion protein (protein-tyrosine phosphatase meg1 AA774-862; PDZ domain 1 of 1) (P08515 1-218, tags or fused parts left off): as above

| Binder | binding result |
| --- | --- |
| Biotin-PYGTAMEKAQLKPPATSDA [CD49E (alpha-4) C-terminal PL peptide AA11L, biotinylated] | no binding |

Target: T9, GST-NeDLG PDZ domain fusion protein (presynaptic protein sao102, neuroendocrine-dlg; PDZ domains 1-2 of 3) (UniProt P08515 1-218 = GST)
T9 construct: also called NeDLG1
Assay: A/G assays

T9 sequence (P08515 1-218, tags or fused parts left off): as above

| Binder | binding result |
| --- | --- |
| Biotin-PYGTAMEKAQLKPPATSDA [CD49E (alpha-4) C-terminal PL peptide AA11L, biotinylated] | no binding |

Target: T10, GST-CBP PDZ domain fusion protein (Cytohesin binding protein HE AA85-175; PDZ domain 1 of 1) (UniProt P08515 1-218 = GST)
T10 construct: also called Prot
Assay: A/G assays

T10 sequence (P08515 1-218, tags or fused parts left off): as above

| Binder | binding result |
| --- | --- |
| Biotin-PYGTAMEKAQLKPPATSDA [CD49E (alpha-4) C-terminal PL peptide AA11L, biotinylated] | no binding |

Target: GST-MPP1 PDZ domain fusion protein (55 Kd erythrocyte membrane protein AA101-186; PDZ domain 1 of 1) (UniProt P08515 1-218 = GST)
Assay: A/G assays

Chain of GST-MPP1 PDZ domain fusion protein (55 Kd erythrocyte membrane protein AA101-186; PDZ domain 1 of 1) (P08515 1-218, tags or fused parts left off): as above

| Binder | binding result |
| --- | --- |
| Biotin-PYGTAMEKAQLKPPATSDA [CD49E (alpha-4) C-terminal PL peptide AA11L, biotinylated] | no binding |

Target: GST-PSD95 PDZ domain fusion protein (human post-synaptic density protein 95 AA387-724; PDZ domains 1-3 of 3) (human, UniProt P08515 1-218 = GST)
Assay: A/G assays

Chain of GST-PSD95 PDZ domain fusion protein (human post-synaptic density protein 95 AA387-724; PDZ domains 1-3 of 3) (P08515 1-218, tags or fused parts left off): as above

| Binder | binding result |
| --- | --- |
| Biotin-PYGTAMEKAQLKPPATSDA [CD49E (alpha-4) C-terminal PL peptide AA11L, biotinylated] | no binding |

Target: T11, GST-KIAA0303 PDZ domain fusion protein (KIAA0303 AA652-742; PDZ domain 1 of 1) (UniProt P08515 1-218 = GST)
T11 construct: also called K303
Assay: A/G assays

T11 sequence (P08515 1-218, tags or fused parts left off): as above

| Binder | binding result |
| --- | --- |
| Biotin-PYGTAMEKAQLKPPATSDA [CD49E (alpha-4) C-terminal PL peptide AA11L, biotinylated] | no binding |

Target: GST-AF6 PDZ domain fusion protein (af-6 protein AA985-1077; PDZ domain 1 of 1) (UniProt P08515 1-218 = GST)
Assay: A/G assays

Chain of GST-AF6 PDZ domain fusion protein (af-6 protein AA985-1077; PDZ domain 1 of 1) (P08515 1-218, tags or fused parts left off): as above

| Binder | binding result |
| --- | --- |
| Biotin-PYGTAMEKAQLKPPATSDA [CD49E (alpha-4) C-terminal PL peptide AA11L, biotinylated] | no binding |

Target: GST-DVL1 PDZ domain fusion protein (human dishevelled segment polarity protein homolog AA248-340); PDZ domain … (human, UniProt P08515 1-218 = GST)
Assay: A/G assays

Chain of GST-DVL1 PDZ domain fusion protein (human dishevelled segment polarity protein homolog AA248-340); PDZ domain … (P08515 1-218, tags or fused parts left off): as above

| Binder | binding result |
| --- | --- |
| Biotin-PYGTAMEKAQLKPPATSDA [CD49E (alpha-4) C-terminal PL peptide AA11L, biotinylated] | no binding |

Target: GST-TIAM1 PDZ domain fusion protein (T-lymphoma invasion and metastasis inducing protein 1 AA1001-1088); PDZ 1 … (UniProt P08515 1-218 = GST)
Assay: A/G assays

Chain of GST-TIAM1 PDZ domain fusion protein (T-lymphoma invasion and metastasis inducing protein 1 AA1001-1088); PDZ 1 … (P08515 1-218, tags or fused parts left off): as above

| Binder | binding result |
| --- | --- |
| Biotin-PYGTAMEKAQLKPPATSDA [CD49E (alpha-4) C-terminal PL peptide AA11L, biotinylated] | no binding |

Target: T12, GST-RGS12 PDZ domain fusion protein (human regulator of G-protein signalling 12 AA35-103; PDZ domain 1 of 1) (human, UniProt P08515 1-218 = GST)
T12 construct: also called RSG12
Assay: A/G assays

T12 sequence (P08515 1-218, tags or fused parts left off): as above

| Binder | binding result |
| --- | --- |
| Biotin-PYGTAMEKAQLKPPATSDA [CD49E (alpha-4) C-terminal PL peptide AA11L, biotinylated] | no binding |

Target: GST-prIL16 PDZ domain fusion protein (putative interleukin 16 precursor AA170-383; PDZ domains 1-2 of 2) (UniProt P08515 1-218 = GST)
Assay: A/G assays

Chain of GST-prIL16 PDZ domain fusion protein (putative interleukin 16 precursor AA170-383; PDZ domains 1-2 of 2) (P08515 1-218, tags or fused parts left off): as above

| Binder | binding result |
| --- | --- |
| Biotin-PYGTAMEKAQLKPPATSDA [CD49E (alpha-4) C-terminal PL peptide AA11L, biotinylated] | no binding |

Target: T13, GST-CASK PDZ domain fusion protein (CASK AA495-584; PDZ domain 1 of 1) (mouse, UniProt P08515 1-218 = GST)
T13 construct: also called mCASK
Assay: A/G assays

| Binder | binding result |
| --- | --- |
| Biotin-PYGTAMEKAQLKPPATSDA [CD49E (alpha-4) C-terminal PL peptide AA11L, biotinylated] | no binding |

Target: GST-NOS1 PDZ domain fusion protein (human neuronal nitric oxide synthase; PDZ domain 1 of 1) (human, UniProt P08515 1-218 = GST)
Assay: A/G assays

| Binder | binding result |
| --- | --- |
| Biotin-PYGTAMEKAQLKPPATSDA [CD49E (alpha-4) C-terminal PL peptide AA11L, biotinylated] | no binding |

Target: T14, GST-41.8 kD PDZ domain fusion protein (hypothetical 41.8 kD protein AA4-85; PDZ domain 1 of 1) (UniProt P08515 1-218 = GST)
T14 construct: also called hypoth
Assay: A and G assays

| Binder | binding result |
| --- | --- |
| Biotin-PYGTAMEKAQLKPPATSDA [CD49E (alpha-4) C-terminal PL peptide AA11L, biotinylated] | binds |
